Assay results from US20260217806A1 (H LUNDBECK A S, published 2026).

Biological target: brain derived alpha synuclein oligomers and fibrils (MSA and PD brain homogenates enriched for aggregated, … (UniProt P37840 1-140))
Test: ELISA on MSA and PD brain homogenates enriched for aggregated, insoluble alpha synuclein (data not shown)

EC50: 0.09 to 0.16 nM
B1: GM37 variant 2 (antibody, human IgG1, kappa, V domains shown)
VH: EVQLLESGGGLVQTGGSLRLSCAASGFTFSSYAMTWVRQAPGKGLEWVSAIRSQGDRTDYADSVKGRFTISRDNSQNTLYLQMNSLRAEDTAVYYCAKNWAPFDSWGQGTLVTVSS
VL: not shown
notes: VH 31 and VL 8 are firmly tied to the antibody; It is a human IgG1 kappa; also called GM37v2; GM37var2
